Experimental data reported in patent US12584107B2 (dated 2026).

T1: NY-ESO-1 peptide on HLA-A*02:01 (human)
T1 peptide: SLLMWITQC


Tests used:
[1] = molecular target: T1, NY-ESO-1 peptide on HLA-A*02:01; experiment: multimer staining
[2] = molecular target: T1, NY-ESO-1 peptide on HLA-A*02:01; experiment: activation reporter or marker

Row | binding result [1] | binding result [2] | Binder
1 | recognises |  | NY7JSY (TCR, V domains shown) Valpha: QKEVEQNSGPLSVPEGAIASLNCTYSDRGSQSFFWYRQYSGKSPELIMFIYSNGDKEDGRFTAQLNKASQYVSLLIRDSQPSDSATYLCAVMRAGGFKTIFGAGTRLFVKA Vbeta: DSGVTQTPKHLITATGQRVTLRCSPRSGDLSVYWYQQSLDQGLQFLIQYYNGEERAKGNILERFSAQQFPDLHSELNLSSLELGDSALYFCASSVVDGEQYFGPGTRLTVT
2 |  | recognises | NY7 variant TCR ID 5 (Table A) (TCR, V domains shown) Valpha: QKEVEQNSGPLSVPEGAIASLNCTYSDRWSQSFFWYRQYSGKSPELIMFIYSNGDKEDGRFTAQLNKASQYVSLLIRDSQPSDSATYLCAVMRAGGFKTIFGAGTRLFVKA Vbeta: DSGVTQTPKHLITATGQRVTLRCSPRSGDLSVYWYQQSLDQGLQFLIQYYNGEERAKGNILERFSAQQFPDLHSELNLSSLELGDSALYFCASSVVDGEQYFGPGTRLTVT
